From patent US20240197919A1 (CALIFORNIA INSTITUTE OF TECHNOLOGY, published 2024) come the findings set out here.

The target of this assay is T1, Ly6a-Fc fusion protein (murine, UniProt P05533 27-112).
T1 construct: Captured on a protein A sensor chip for SPR; also called Ly6a-Fc protein; not shown: Fc part
T1 sequence: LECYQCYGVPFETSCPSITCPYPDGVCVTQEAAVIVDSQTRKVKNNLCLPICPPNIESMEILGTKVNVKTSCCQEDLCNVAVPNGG
As to the kind of experiment: SPR, Ly6a-Fc captured on protein A chip, rAAV injected as analyte.

Numbering of substitutions follows the chain as printed.

B1: AAV-X1 (other)
chain: MAADGYLPDWLEDNLSEGIREWWALKPGAPQPKANQQHQDNARGLVLPGYKYLGPGNGLDKGEPVNAADAAALEHDKAYDQQLKAGDNPYLKYNHADAEFQERLKEDTSFGGNLGRAVFQAKKRLLEPLGLVEEAAKTAPGKKRPVEQSPQEPDSSAGIGKSGAQPAKKRLNFGQTGDTESVPDPQPIGEPPAAPSGVGSLTMASGGGAPVADNNEGADGVGSSSGNWHCDSQWLGDRVITTSTRTWALPTYNNHLYKQISNSTSGGSSNDNAYFGYSTPWGYFDFNRFHCHFSPRDWQRLINNNWGFRPKRLNFKLFNIQVKEVTDNNGVKTIANNLTSTVQVFTDSDYQLPYVLGSAHEGCLPPFPADVFMIPQYGYLTLNDGSQAVGRSSFYCLEYFPSQMLRTGNNFQFSYEFENVPFHSSYAHSQSLDRLMNPLIDQYLYYLSRTINGSGQNQQTLKFSVAGPSNMAVQGRNYIPGPSYRQQRVSTTVTQNNNSEFAWPGASSWALNGRNSLMNPGPAMASHKEGEDRFFPLSGSLIFGKQGTGRDNVDADKVMITNEEEIKTTNPVATESYGQVATNHQSAQGNNTRSVAQAQTGWVQNQGILPGMVWQDRDVYLQGPIWAKIPHTDGNFHPSPLMGGFGMKHPPPQILIKNTPVPADPPTAFNKDKLNSFITQYSTGQVSVEIEWELQKENSKRWNPEIQYTSNYYKSNNVEFAVNTEGVYSEPRPIGTRYLTRNL
notes: Tested as an assembled rAAV particle; also called AAV-CAP.X1
For the molecule B1, the binding result is given as “no binding”.

B2: AAV-X1.1 (other)
chain: B1 chain with N452D, S454A, G455A, Q456T, N457K, Q458N
notes: Tested as an assembled rAAV particle; also called AAV9-X1.1
Take B2: the binding result is recorded as “no binding”.
